For five molecules, binding result and Kd results are on record in paper PMC3737334 (RNA Biology, 2013).

The data set “crystal structure” concerns the molecule itself. As to the kind of experiment: crystal structure.
The data set “SEC” deals with the molecule itself. The experiment in a line: SEC.
A further data set concerns the target T1, Csa5 (UniProt Q97Y90 1-150).
T1 sequence: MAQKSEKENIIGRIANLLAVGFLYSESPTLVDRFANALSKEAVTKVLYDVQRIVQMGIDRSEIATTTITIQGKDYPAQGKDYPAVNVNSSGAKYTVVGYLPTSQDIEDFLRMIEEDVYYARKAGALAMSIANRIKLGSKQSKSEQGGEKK
As to the kind of experiment: fluorescence anisotropy. In general terms: In fluorescence polarisation assays a small probe gives low polarisation when free and higher when bound to something large.

In data set [1] the target is T2, Cas5 (Cas5/Cas7 core complex);Cas7 (Cas5/Cas7 core complex) (Sulfolobus solfataricus P2?;Sulfolobus …, UniProt Q97Y92;Q97Y91 1-240;1-321, |).
T2 sequence 1: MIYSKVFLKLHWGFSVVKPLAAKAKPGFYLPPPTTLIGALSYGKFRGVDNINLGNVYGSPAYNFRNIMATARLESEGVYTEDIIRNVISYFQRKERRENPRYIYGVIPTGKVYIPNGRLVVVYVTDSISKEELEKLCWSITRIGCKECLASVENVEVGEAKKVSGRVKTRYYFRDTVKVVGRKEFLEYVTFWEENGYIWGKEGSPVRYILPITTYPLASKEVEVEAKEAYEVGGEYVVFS
T2 sequence 2: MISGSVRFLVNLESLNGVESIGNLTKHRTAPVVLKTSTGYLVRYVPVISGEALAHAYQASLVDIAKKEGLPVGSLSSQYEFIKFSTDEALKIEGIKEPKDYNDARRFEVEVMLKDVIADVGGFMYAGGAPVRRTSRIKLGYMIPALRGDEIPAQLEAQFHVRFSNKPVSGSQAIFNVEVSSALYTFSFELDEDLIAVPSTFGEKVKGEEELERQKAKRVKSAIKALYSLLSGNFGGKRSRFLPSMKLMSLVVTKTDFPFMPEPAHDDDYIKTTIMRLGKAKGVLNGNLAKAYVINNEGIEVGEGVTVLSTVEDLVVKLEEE
As to the kind of experiment: fluorescence anisotropy.

B1: Sso1398 (Csa5 paralog), selenomethionyl derivative (natural protein, S. solfataricus)
chain: MEASEPVAETISKRFWTLIKMLRFYVVLRRFGYIDPLIYSIDPKQIKDVLSEALREFVSYTSSSSSRSIVIYDDPKNPVTAQAPCLVVAKRDEIPQNFPSIYRYTIYKIDKSSEYCISPLVVNDKYATLITPNESVIKEFFDKLDSNIQYARVLASLAVGGE
modifications: selenomethionine in place of methionine
B1: the binding result in “crystal structure” is recorded as “binds”.

B2: Sso1398 wild type (Csa5 paralog) (natural protein, S. solfataricus)
chain: MEASEPVAETISKRFWTLIKMLRFYVVLRRFGYIDPLIYSIDPKQIKDVLSEALREFVSYTSSSSSRSIVIYDDPKNPVTAQAPCLVVAKRDEIPQNFPSIYRYTIYKIDKSSEYCISPLVVNDKYATLITPNESVIKEFFDKLDSNIQYARVLASLAVGGE
Turning to B2, the binding result in “SEC” is given as “binds”.

B3: non-target ssDNA (ssDNA)
DNA: CCTCGAGGGATCCGTCCTAGCAAGCCGCTGCTACCGGAAGCTTCTGGACC
Regarding B3, the binding result with Csa5 is reported as “no binding”.

B4: crRNA (spacer 26, CRISPR locus A) (ssRNA)
RNA: AUUGAAAGACCAUACCCAACUUCUAACAACGUCGUUCUUAACAACGGAUUAAUCCCAAAA
As to B4, in data set [1], binding was put at a Kd of 1380 ± 140 nM. The binding result with Csa5 is listed as “no binding”.

B5: crRNA/protospacer heteroduplex (DNA:RNA)
RNA: AUUGAAAGACCAUACCCAACUUCUAACAACGUCGUUCUUAACAACGGAUUAAUCCCAAAA
DNA: GATCCTCTCCACGTTGTTAAGAACGACGTTGTTAGAAGTTGGGTATGGTTGGCTG
As to B5, the binding result with Csa5 is recorded as “no binding”.
